Common to all, as to assay: high-throughput RNA pulldown from lysate on Ni-NTA beads; HRP: 50 mM Tris pH 8, 150 mM NaCl, 1 mM beta-mercaptoethanol, 50 ug/ml BSA, 3 ug/ml yeast RNA, 0.5% heparin; ITC and FP: Tris pH 8, 200 mM KCl, 5% glycerol; MST: 50 mM Tris pH 8, 200 mM NaCl, 1 mM DTT, BSA, heparin, 0.05% Tween 20
What all share (details): tags: N-terminal His-eGFP

Data set [1] concerns the target T1, GFP-9S library array, motif 4 ND N98W;D124C (synthetic construct, N98W;D124C).
T1 chain: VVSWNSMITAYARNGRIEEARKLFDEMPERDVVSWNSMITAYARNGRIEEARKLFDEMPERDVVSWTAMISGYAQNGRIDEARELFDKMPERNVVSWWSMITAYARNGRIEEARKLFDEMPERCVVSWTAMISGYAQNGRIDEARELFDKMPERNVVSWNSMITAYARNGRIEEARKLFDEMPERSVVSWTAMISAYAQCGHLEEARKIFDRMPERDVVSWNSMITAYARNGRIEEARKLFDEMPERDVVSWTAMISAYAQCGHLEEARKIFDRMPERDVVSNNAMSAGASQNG

The target of data set [2] is T2, GFP-9S library array, motif 4 ND N98L;D124T (synthetic construct, N98L;D124T).
T2 chain: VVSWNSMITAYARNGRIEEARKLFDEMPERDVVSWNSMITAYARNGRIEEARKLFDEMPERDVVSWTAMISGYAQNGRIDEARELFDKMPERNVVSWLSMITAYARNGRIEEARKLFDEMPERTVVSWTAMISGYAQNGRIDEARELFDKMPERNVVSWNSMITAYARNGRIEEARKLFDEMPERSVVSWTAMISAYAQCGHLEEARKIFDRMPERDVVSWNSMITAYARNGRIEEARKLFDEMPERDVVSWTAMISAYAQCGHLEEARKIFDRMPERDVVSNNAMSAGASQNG

For data set [3], the target named is T3, GFP-9S library array, motif 4 ND N98M;D124C (synthetic construct, N98M;D124C).
T3 chain: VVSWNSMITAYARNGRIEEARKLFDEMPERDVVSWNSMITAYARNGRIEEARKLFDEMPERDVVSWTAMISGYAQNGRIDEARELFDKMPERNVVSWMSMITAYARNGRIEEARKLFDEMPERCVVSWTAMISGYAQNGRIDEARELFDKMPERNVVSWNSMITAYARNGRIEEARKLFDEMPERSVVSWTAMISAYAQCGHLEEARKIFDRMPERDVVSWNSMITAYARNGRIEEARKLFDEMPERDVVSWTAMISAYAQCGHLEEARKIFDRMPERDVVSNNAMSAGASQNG

The target in data set [4] is T4, GFP-9S library array, motif 4 ND N98A;D124N (synthetic construct, N98A;D124N).
T4 chain: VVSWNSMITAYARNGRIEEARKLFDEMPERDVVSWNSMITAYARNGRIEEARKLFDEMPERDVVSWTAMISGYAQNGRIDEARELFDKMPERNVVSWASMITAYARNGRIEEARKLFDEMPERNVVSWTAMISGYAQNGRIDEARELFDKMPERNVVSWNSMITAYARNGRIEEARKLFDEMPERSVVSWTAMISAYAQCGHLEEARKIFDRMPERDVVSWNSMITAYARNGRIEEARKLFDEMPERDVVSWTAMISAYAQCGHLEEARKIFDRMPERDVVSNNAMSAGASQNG

Data set [5] has as its target T5, GFP-9S library array, motif 4 ND N98F;D124P (synthetic construct, N98F;D124P).
T5 chain: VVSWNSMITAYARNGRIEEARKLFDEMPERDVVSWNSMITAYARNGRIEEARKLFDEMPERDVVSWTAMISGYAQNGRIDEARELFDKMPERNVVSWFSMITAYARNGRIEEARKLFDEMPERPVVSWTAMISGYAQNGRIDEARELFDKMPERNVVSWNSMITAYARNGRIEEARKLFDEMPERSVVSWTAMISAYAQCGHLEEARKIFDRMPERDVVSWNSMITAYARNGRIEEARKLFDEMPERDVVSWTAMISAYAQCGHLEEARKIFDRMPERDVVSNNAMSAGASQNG

Usually Kd stands for the free concentration of one partner at which half of the binding sites on the other are occupied at equilibrium, for simple one-to-one binding. Read a low Kd as tighter binding.

B1: Cy5-rpoA (ssRNA)
RNA: AUUACACGUGA
As to B1, the Kd turned out to be 79.4 nM in data set [1] (label: 5' Cy5); 103 nM in data set [2] (label: 5' Cy5); 99.7 nM in data set [3] (label: 5' Cy5); 66 nM in data set [4] (label: 5' Cy5); 140 nM in data set [5] (label: 5' Cy5).

B2: IR-rpoA-A (ssRNA)
RNA: AUUAAACGUGA
On to B2, for which the Kd in data set [1] (label: 5' IRDye 800CW) is 181 nM; in data set [2] (label: 5' IRDye 800CW) it was 171 nM; in data set [3] (label: 5' IRDye 800CW), 85.3 nM; in data set [4] (label: 5' IRDye 800CW), 137 nM; in data set [5] (label: 5' IRDye 800CW), 393 nM.

B3: IR-rpoA-U (ssRNA)
RNA: AUUAUACGUGA
Turning to B3, the Kd stood at 199 nM in data set [1] (label: 5' IRDye 800CW); 19 nM in data set [2] (label: 5' IRDye 800CW); 193 nM in data set [3] (label: 5' IRDye 800CW); 44 nM in data set [4] (label: 5' IRDye 800CW); 196 nM in data set [5] (label: 5' IRDye 800CW).

B4: Cy5-rpoA-G (ssRNA)
RNA: AUUAGACGUGA
In the case of B4, the dissociation constant Kd in data set [1] (label: 5' Cy5) was determined as 77.6 nM; in data set [2] (label: 5' Cy5), 206 nM; in data set [3] (label: 5' Cy5) it was 68.8 nM; in data set [4] (label: 5' Cy5) it was 123 nM; in data set [5] (label: 5' Cy5) it was 181 nM.

(Values after paper PMC8809517, “Cofactor-independent RNA editing by a synthetic S-type PPR protein”.)
